From PMC7367449

What was measured:
[1] = target: recombinant hCD134 with C-terminal human FcHis-tag replacing the transmembrane domain (hCD134-hFcHis) (human) (UniProt P43489); experiment: SPR; Biacore T200, CM5 chip; hCD134-hFcHis captured via immobilised Protein A; soluble tetramer injected; multi-cycle kinetics, 1:1 binding fit
[2] = target: anti-gH Mab OHV-3 (murine); experiment: SPR; Biacore T200, CM5 chip; Mab captured via immobilised Protein A/Protein L; soluble tetramer injected at 5, 10, 20, 40 and 80 nM; single-cycle kinetics
Chain of anti-gH Mab OHV-3 (murine) (heavy, as listed by the source, chain 1 of 2): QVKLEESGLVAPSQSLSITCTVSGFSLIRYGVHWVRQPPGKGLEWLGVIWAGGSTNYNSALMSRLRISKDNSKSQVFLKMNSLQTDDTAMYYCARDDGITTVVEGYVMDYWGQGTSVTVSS
Chain of anti-gH Mab OHV-3 (murine) (light, as listed by the source, chain 2 of 2): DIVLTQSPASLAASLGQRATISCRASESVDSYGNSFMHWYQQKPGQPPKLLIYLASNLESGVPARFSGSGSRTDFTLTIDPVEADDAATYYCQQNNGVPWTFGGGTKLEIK

[3] = target: recombinant hCD134 with C-terminal human FcHis-tag replacing the transmembrane domain (hCD134-hFcHis) (human) (UniProt P43489); experiment: SPR; Biacore T200, CM5 chip; hCD134-hFcHis captured via immobilised Protein A; soluble tetramer injected; steady-state affinity analysis of the response units at equilibrium

Chain of UniProt P43489 (P43489 29-214): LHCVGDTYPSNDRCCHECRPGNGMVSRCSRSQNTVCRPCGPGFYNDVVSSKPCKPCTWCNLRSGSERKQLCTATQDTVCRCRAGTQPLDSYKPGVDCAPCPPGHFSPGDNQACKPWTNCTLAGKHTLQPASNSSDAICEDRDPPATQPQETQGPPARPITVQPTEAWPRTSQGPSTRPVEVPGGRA

With “soluble HHV-6B gH/gL/gQ1/gQ2 complex (HHV-6B tetramer)” the Kd [1] was 14 nM, the koff [1] was 0.0158 s⁻¹ and the kon [1] was 1.1e+06 M⁻¹ s⁻¹. The Kd [2] was 2.7 nM, the koff [2] was 0.00035 s⁻¹ and the kon [2] was 130000 M⁻¹ s⁻¹. For the same substance, the Kd [3] was 18 nM.
